Earlier results, collected in US20140031310A1, “PHARMACEUTICAL COMPOSITIONS AND METHODS FOR MAKING AND USING THEM” (priority 2011, published 2014).

Legend:
[1] = in vivo
[2] = in vivo; remark: listed apart in the source

Molecule	leads to HFSR / skin toxicity [1]	pharmacokinetic half-life [2] [h]
bevacizumab: anti-VEGF mAb	Neither anti-VEGF mAbs (bevacizumab) nor PDGF-R inhibitors (e.g., imatinib) lead to HFSR	
CNC(=O)c1cc(Oc2ccc(NC(=O)Nc3ccc(Cl)c(C(F)(F)F)c3)cc2)ccn1 [sorafenib]		20 to 24
